# In patent US20080219974A1 (published 2008):
# Changes are numbered by the printed parent chain. In names and notes the source's numbering stands.
# T1: Human HM1.24 on RPMI 8226 multiple myeloma cells (UniProt Q10589 1-161)
# T1 chain: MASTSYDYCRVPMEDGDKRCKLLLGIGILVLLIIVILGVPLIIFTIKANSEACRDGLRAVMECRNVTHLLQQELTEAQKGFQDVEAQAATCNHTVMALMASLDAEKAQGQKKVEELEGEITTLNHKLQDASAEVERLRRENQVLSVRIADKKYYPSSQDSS
# T2: His-tagged HM1.24 antigen, residues N49-A163 of the extracellular domain (UniProt Q10589 49-163)
# T2 chain: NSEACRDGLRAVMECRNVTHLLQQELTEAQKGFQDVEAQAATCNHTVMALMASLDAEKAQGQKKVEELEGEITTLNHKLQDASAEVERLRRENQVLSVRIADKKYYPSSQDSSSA
# B1: HM1.24_H1L4 (antibody, V domains shown)
# VH: QVQLVQSGAEVKKPGASVKVSCKASGYTFTPYWMQWVRQAPGQGLEWMGSIFPGDGDTRYSQSFQGQVTISADKSISTAYMELSRLRSDDTAVYYCARGLRRGGYYFDYWGQGTLVTVSS
# VL: DIVMTQSPLSLPVTLGQPASISCKASQDVNTAVAWYLQKPGKSPKLLIYSASNRYTGVPDRITGSGSGTDFTLKISRVEAEDVGVYYCQQHYSTPFTFGSGTKLEIKR
# B2: HM1.24_H1L2 (antibody, V domains shown)
# VH: B1 VH
# VL: DIVMTQSPSSLSASVGDRVTITCQASQDVNTAVAWYQQKPDQSPKLLIYSASNRYTGVPDRITGSGSGTDFTLTISSLQAEDVAVYYCQQHYSTPFTFGSGTKLEIKR
# B3: H1L3_Hybrid_S239D/I332E (antibody, V domains shown)
# VH: B1 VH
# VL: B2 VL with S9P, S10T, A13L, V15P, D17E, I21L, T22S, Q24R, A80P, V83F
# B4: HM1.24_H2L4 (antibody, V domains shown)
# VH: EVQLVESGGGLVKPGGSLRLSCAASGYTFTPYWMQWVRQAPGKGLEWMGSIFPGDGDTRYSQSFQGQVTISADKSISTAYMELSSLRSEDTAVYYCARGLRRGGYYFDYWGQGTLVTVSS
# VL: B1 VL
# B5: H0L0_IgG1_S239D/I332E (antibody, V domains shown)
# VH: QVQLQQSGAELARPGASVKLSCKASGYTFTPYWMQWVKQRPGQGLEWIGSIFPGDGDTRYSQKFKGKATLTADKSSSTAYMQLSILAFEDSAVYYCARGLRRGGYYFDYWGQGTTLTVSS
# VL: DIVMTQSHKFMSTSVGDRVSITCKASQDVNTAVAWYQQKPGQSPKLLIYSASNRYTGVPDRITGSGSGTDFTFTISSVQAEDLALYYCQQHYSTPFTFGSGTKLEIK
# B6: HM1.24_H0L0_IgG1_WT (antibody, V domains shown)
# VH: B5 VH
# VL: DIVMTQSHKFMSTSVGDRVSITCKASQDVNTAVAWYQQKPGQSPKLLIYSASNRYTGVPDRITGSGSGTDFTFTISSVQAEDLALYYCQQHYSTPFTFGSGTKLEIKR
# B7: HM1.24_H2L2 (antibody, V domains shown)
# VH: B4 VH
# VL: B2 VL
# B8: H2L3_Hybrid_S239D/I332E (antibody, V domains shown)
# VH: B4 VH
# VL: B2 VL with S9P, S10T, A13L, V15P, D17E, I21L, T22S, Q24R, A80P, V83F
# B9: HM1.24_H1.2 heavy chain variant with HM1.24_L4 light chain (antibody, V domains shown)
# VH: B1 VH with D55S
# VL: B1 VL
# B10: HM1.24_H1.1 heavy chain variant with HM1.24_L4 light chain (antibody, V domains shown)
# VH: B1 VH with D55E
# VL: B1 VL
# B11: HM1.24_H2.4 heavy chain variant with HM1.24_L4 light chain (antibody, V domains shown)
# VH: B4 VH with G56A
# VL: B1 VL
# B12: HM1.24_H1.3 heavy chain variant with HM1.24_L4 light chain (antibody, V domains shown)
# VH: B1 VH with G56S
# VL: B1 VL
# B13: HM1.24_H1.3_L2_Hybrid_S239D/I332E (antibody, V domains shown)
# VH: B1 VH with G56S
# VL: B2 VL
# B14: HM1.24_H2.1 heavy chain variant with HM1.24_L4 light chain (antibody, V domains shown)
# VH: B4 VH with D55E
# VL: B1 VL
# B15: HM1.24_H1.4_L2_Hybrid_S239D/I332E (antibody, V domains shown)
# VH: B1 VH with G56A
# VL: B2 VL
# B16: HM1.24_H1.2_L2_Hybrid_S239D/I332E (antibody, V domains shown)
# VH: B1 VH with D55S
# VL: B2 VL
# B17: HM1.24_H2.3 heavy chain variant with HM1.24_L4 light chain (antibody, V domains shown)
# VH: B4 VH with G56S
# VL: B1 VL
# B18: HM1.24_H1.1_L2_Hybrid_S239D/I332E (antibody, V domains shown)
# VH: B1 VH with D55E
# VL: B2 VL
# B19: HM1.24_H1.4 heavy chain variant with HM1.24_L4 light chain (antibody, V domains shown)
# VH: B1 VH with G56A
# VL: B1 VL
# Biological target: T1, Human HM1.24 on RPMI 8226 multiple …
# Experiment: flow cytometry
row,Binder,EC50
1,B1,1.89 nM
2,B2,2.52 nM
3,B3,3.26 nM
4,B4,3.55 nM
5,B5,2.22 nM
6,B6,2.46 nM
7,B7,5.83 nM
8,B8,13.1 nM

# Biological target: T2, His-tagged HM1.24 antigen, residues …
# Experiment: Biacore
row,Binder,koff
1,B9,0.00203 s⁻¹
2,B10,0.00251 s⁻¹
3,B11,0.004 s⁻¹
4,B12,0.00261 s⁻¹
5,B13,0.003 s⁻¹
6,B1,0.00352 s⁻¹
7,B14,0.00266 s⁻¹
8,B2,0.00318 s⁻¹
9,B15,0.00352 s⁻¹
10,B4,0.00418 s⁻¹
11,B16,0.00371 s⁻¹
12,B17,0.00374 s⁻¹
13,B18,0.0032 s⁻¹
14,B19,0.00298 s⁻¹

# Biological target: T2, His-tagged HM1.24 antigen, residues …
# Experiment: Biacore
# Remark: another data set of the same source
row,Binder,koff
1,B9,0.0023 s⁻¹
2,B10,0.00201 s⁻¹
3,B11,0.0029 s⁻¹
4,B12,0.00229 s⁻¹
5,B13,0.00279 s⁻¹
6,B1,0.00243 s⁻¹
7,B14,0.00218 s⁻¹
8,B2,0.00241 s⁻¹
9,B15,0.00274 s⁻¹
10,B4,0.00299 s⁻¹
11,B16,0.0039 s⁻¹
12,B17,0.00327 s⁻¹
13,B18,0.00206 s⁻¹
14,B19,0.00298 s⁻¹

# Biological target: T2, His-tagged HM1.24 antigen, residues …
# Experiment: Biacore
# Remark: another data set of the same source
row,Binder,Kd
1,B9,0.0711 nM
2,B1,0.0572 nM
3,B2,0.0574 nM
4,B5,0.0637 nM
5,B6,0.0537 nM

# Biological target: T2, His-tagged HM1.24 antigen, residues …
# Experiment: Biacore
# Remark: another data set of the same source
row,Binder,Kd
1,B9,0.062 nM
2,B1,0.0381 nM
3,B2,0.0269 nM
4,B5,0.0522 nM
5,B6,0.0511 nM
